From patent US20230183353A1 come the findings set out here.

Assay [1] addresses recombinant human FcγRIIIa (Val) (human) (UniProt P08637). In words: SPR (ProteOn), receptor immobilised on GLC chip by amine coupling, pH 7.4, 25 C.
In assay [2] the target is recombinant human FcγRIIIa (Phe) (human) (UniProt P08637). The assay is described as above.
Sequence of recombinant human FcγRIIIa (Phe) (human) (P08637 17-208 limits assumed): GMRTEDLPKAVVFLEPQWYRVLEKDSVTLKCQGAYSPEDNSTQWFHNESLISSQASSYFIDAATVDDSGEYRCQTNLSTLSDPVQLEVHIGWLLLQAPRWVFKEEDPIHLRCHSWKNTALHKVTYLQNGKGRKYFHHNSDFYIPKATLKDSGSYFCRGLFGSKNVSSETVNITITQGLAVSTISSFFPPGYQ

Sequence of recombinant human FcγRIIIa (Val) (human) (P08637 17-208 F176V limits assumed): as the sequence (P08637 17-208 limits assumed) above, with F160V counted along it

In general, Kd refers to the free concentration of one partner at which half of the binding sites on the other are occupied at equilibrium, for simple one-to-one binding. For “Control molecule representing human IgG1 control (lacking substitutions of the present invention)”, the Kd is 1.28 µM in assay [1] and 2.2 µM in assay [2].
